Target: detyrosinated microtubules (rat cardiomyocytes) (rat)
Experiment: cell-based or functional assay

Detyr (% cell area), immunofluorescence, TTL overexpressing cells (null: 43.9): 12.9 % cell area
Substance: human tubulin tyrosine ligase (TTL) (from UniProt Q8NG68 1-377)

Source: patent US20180326022A1, “COMPOSITIONS AND METHODS FOR IMPROVING HEART FUNCTION AND TREATING HEART FAILURE” (The Trustees of the University of Pennsylvania, priority 2017, published 2018)
